Results: patent US20240182941A1, “XYLOSYLATED STEVIOL GLYCOSIDES AND ENZYMATIC METHODS FOR PRODUCTION” (CARGILL, INCORPORATED, priority 2021, published 2024)
“And” between values parts separate entries of the source, which are not always exact repeats. Identical values can stand only once.

T1: UGT76G1 (Stevia rebaudiana, UniProt Q6VAB4)
T1 construct: unspecified tag; made in house; host or cells: E. coli
T1 sequence (Q6VAB4 1-458): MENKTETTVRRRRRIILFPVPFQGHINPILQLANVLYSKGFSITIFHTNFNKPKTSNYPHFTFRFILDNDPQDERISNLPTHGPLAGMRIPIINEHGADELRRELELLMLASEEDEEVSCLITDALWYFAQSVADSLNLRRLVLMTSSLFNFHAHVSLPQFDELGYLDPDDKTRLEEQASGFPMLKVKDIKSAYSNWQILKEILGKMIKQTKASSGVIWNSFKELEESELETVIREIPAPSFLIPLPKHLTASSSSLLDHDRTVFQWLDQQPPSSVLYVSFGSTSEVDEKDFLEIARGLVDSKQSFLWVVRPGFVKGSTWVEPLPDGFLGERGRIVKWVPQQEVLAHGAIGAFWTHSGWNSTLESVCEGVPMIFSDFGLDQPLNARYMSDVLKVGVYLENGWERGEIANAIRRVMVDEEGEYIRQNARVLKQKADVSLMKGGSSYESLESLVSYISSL


Experiments:
[1] = test system: glycosyltransferase polypeptide of SEQ ID NO:1; assay: SG bioconversion with UDP-xylose using enzyme of SEQ ID NO:1; assay type: biochemical, Oryza sativa Japonica Group; details: enzyme SEQ ID NO:1, 2 ug protein, 96 hours, 30C, runs 1 and 2
Method: (§1) Six steviolglycoside (SG) ‘acceptors’ Reb A, B, C, D, M and stevioside were tested using 2 glucosyltransferase enzymes (SEQ ID NO:1 and UGT76G1) known to play key roles in SG biosynthesis in stevia leaves and activated xylose (UDP-xylose).
(§2) UDP-xylose (98.9% purity) and UDP-rhamnose di-sodium salt (95% purity) were purchased from BOC Sciences. The activated sugar donors were prepared to 10 mM concentration with 0.05 M tris buffer and stored according to manufacturers' recommendations before use.
(§3) Enzyme of SEQ ID NO:1 and UGT76G1 enzyme were prepared in E. coli host cells as tagged proteins with expression induced by a chemical inducer. Following induction, the cells were incubated overnight and harvested. The cells were then lysed (either through sonication, mechanical disruption or chemical lysis) and the proteins purified through chromatography and stored frozen at −20C till use. Enzyme activities were confirmed using UDP-glucose in a preliminary test. Frozen enzyme solution was thawed right before use and returned to frozen storage after use.
(§4) SG materials were obtained from various sources with 90%+ purities. All SG materials were prepared at 20 mM with 90% DMSO and stored at ambient temperature. Final DMSO concentration in the reaction mixture was 4.5%.
(§5) Sucrose, previously shown to have a stabilizing effect on the bioconversion reaction, was prepared at 0.1 M with 0.05 M tris buffer.
(§6) Tris (tris(hydroxymethyl)aminomethane) buffer was prepared at 0.05 M, pH 7.3 and contained 3 mM each of MgCl2 and MnCl2 as co-factors.
(§7) Bioconversion reaction was carried out in a total of 100 uL sealed vials containing the Tris buffer, 0.1 μmoles of SG acceptor, 0.2 μmoles of activated sugar donor, 1 μmoles of sucrose and 2 ug protein of the enzymes. To each vial, buffer, sucrose, UDP-sugar donor, and SG acceptor were added in that order before finally the enzymes were added. For each SG donor, a control was included to contain the same amounts of sucrose and enzymes without UDP-sugar donors. After hand mixing, the vials were placed in a temperature-controlled shaker set at 30C and 100 rpm in rotating motion for 96 hours (4 days).
(§8) After 4 days of reaction, 0.9 mL of 80% acetonitrile was added to each vial and the resulting samples were analyzed in LC/MS. Xylose modification of the -19C(O)-β-Glc residue was confirmed.

[2] = biological target: T1, UGT76G1; assay: SG bioconversion with UDP-xylose using UGT76G1; assay type: biochemical; details: enzyme UGT76G1, 2 ug protein, 96 hours, 30C, runs 1 and 2
Method: as §1, §2, §3, §4, §5, §6, §7, §8

[3] = Glycosyltransferase assay of SEQ ID NO:1 homologs and variants (IVTT enzymes) on Reb A; assay type: biochemical; details: Reb A acceptor; for Activity relative to the activity of SEQ ID NO:1, Glucose: UDP-glucose; for Activity relative to the activity of SEQ ID NO:1, Glucose / Activity relative to the activity of SEQ ID NO:1, Xylose: SEQ ID1 = 100%; for Activity relative to the activity of SEQ ID NO:1, Xylose: UDP-xylose
Method: Candidate xylosyltransferase enzymes are produced in vitro using the PURExpress In Vitro Protein Synthesis kit from New England Biolabs (NEB #E6800) according to the manufacturer's instructions, including 250 ng plasmid DNA and the addition of 20 units RNase Inhibitor, Murine (NEB #M0314).
The steviol glycoside (SG) ‘acceptors’ Reb A was tested using 4 glucosyltransferase enzymes (SEQ ID NOs: 1-4) homologous to glucosyltransferases in SG biosynthesis in stevia leaves.
UDP-xylose (98.9% purity) was purchased from BOC Sciences. The activated sugar donors were prepared to 10 mM concentration with 0.05 M tris buffer and stored according to manufacturers' recommendations before use. SG materials were obtained from various sources with 90%+ purities. All SG materials were prepared at 20 mM with 90% DMSO and stored at ambient temperature. Final DMSO concentration in the reaction mixture was 4.5%.
as §6
Enzymes were produced via in vitro transcription-translation (IVTT) and activities were confirmed using UDP-glucose in a preliminary test. Bioconversion reaction was carried out in a total of 100 μL sealed vials containing the Tris buffer, 0.1 μmoles of SG acceptor, 0.2 μmoles of activated sugar donor, 1 μmoles of sucrose and 2 μg protein of the enzymes. To each vial, buffer, UDP-sugar donor, SG acceptor were added in that order before, finally, the enzymes were added. For each SG donor, a control was included to contain the same amounts of enzymes without UDP-sugar donors. […]
[…] Xylose modification of the -19C(O)-β-Glc residue was confirmed.
Activity of SEQ ID NOs: 2-4 is expressed relative to the activity of SEQ ID NO:1. […] [SEQ ID NO:3 was run more than once in this experiment,]

Row | Activity relative to the activity of SEQ ID NO:1, Glucose ([3]; 18 hrs) | Activity relative to the activity of SEQ ID NO:1, Glucose ([3]; 48 hrs) | Activity relative to the activity of SEQ ID NO:1, Glucose ([3]; 96 hrs) | Activity relative to the activity of SEQ ID NO:1, Xylose ([3]; 18 hrs) | Activity relative to the activity of SEQ ID NO:1, Xylose ([3]; 48 hrs) | Activity relative to the activity of SEQ ID NO:1, Xylose ([3]; 96 hrs) | overall activity relative to SEQ ID NO:1 ([3]; Table 8) | Molecule | % SG bioconversion with UDP-xylose [1] [%] | % SG bioconversion with UDP-xylose [2] [%]
1 | 81.5% and 148% | 87.1% and 132% | 99.1% and 148% | 47.1% and 78.1% | 51.0% and 78.6% | 38.9% and 62.1% |  | SEQ ID3: glucosyltransferase enzyme, 27% identity to SEQ ID NO:1 (protein, listed as Solanum lycopersicum) MATNLRVLMFPWLAYGHISPFLNIAKQLADRGFLIYLCSTRINLESIIKKIPEKYADSIHLIELQLPELPELPPHYHTTNGLPPHLNPTLHKALKMSKPNFSRILQNLKPDLLIYDVLQPWAEHVANEQNIPAGKLLTSCAAVFSYFFSFRKNPGVEFPFPAIHLPEVEKVKIREILAKEPEEGGRLDEGNKQMMLMCTSRTIEAKYIDYCTELCNWKVVPVGPPFQDLITNDADNKELIDWLGTKHENSTVFVSFGSEYFLSKEDMEEVAFALELSNVNFIWVARFPKGEERNLEDALPKGFLERIGERGRVLDKFAPQPRILNHPSTGGFISHCGWNSAMESIDFGVPIIAMPIHNDQPINAKLMVELGVAVEIVRDDDGKIHRGEIAETLKSVVTGETGEILRAKVREISKNLKSIRDEEMDAVAEELIQLCRNSNKSK |  | 
2 | 825% | 578% | 504% | 459% | 392% | 312% | substantially overall increased activity | SEQ ID2: glycosyltransferase variant with a single serine to isoleucine change at position 152 relative to SEQ ID NO:1 (protein, listed as Oryza sativa) MDSGYSSSYAAAAGMHVVICPWLAFGHLLPCLDLAQRLASRGHRVSFVSTPRNISRLPPVRPALAPLVAFVALPLPRVEGLPDGAESTNDVPHDRPDMVELHRRAFDGLAAPFSEFLGTACADWVIVDVFHHWAAAAALEHKVPCAMMLLGIAHMIASIADRRLERAETESPAAAGQGRPAAAPTFEVARMKLIRTKGSSGMSLAERFSLTLSRSSLVVGRSCVEFEPETVPLLSTLRGKPITFLGLMPPLHEGRREDGEDATVRWLDAQPAKSVVYVALGSEVPLGVEKVHELALGLELAGTRFLWALRKPTGVSDADLLPAGFEERTRGRGVVATRWVPQMSILAHAAVGAFLTHCGWNSTIEGLMFGHPLIMLPIFGDQGPNARLIEAKNAGLQVARNDGDGSFDREGVAAAIRAVAVEEESSKVFQAKAKKLQEIVADMACHERYIDGFIQQLRSYKD |  | 
3 | 174% | 151% | 170% | 11.5% | 9.68% | 10.9% |  | SEQ ID4: glucosyltransferase enzyme, 25% identity to SEQ ID NO:1 (protein, listed as Lycium barbarum) MGTEVTVHKNTLRVLMFPWLAYGHISPFLNVAKKLVDRGFLIYLCSTAINLKSTIKKIPEKYSDSIQLIELHLPELPELPPHYHTTNGLPPHLNHTLQKALKMSKPNFSKILQNLKPDLVIYDLLQQWAEGVANEQNIPAVKLLTSGAAVLSYFFNLVKKPGVEFPFPAIYLRKNELEKMSELLAQSAKDKEPDGVDPFADGNMQVMLMSTSRIIEAKYIDYFSGLSNWKVVPVGPPVQDPIADDADEMELIDWLGKKDENSTVFVSFGSEYFLSKEDREEIAFGLELSNVNFIWVARFPKGEEQNLEDALPKGFLERIGDRGRVLDKFAPQPRILNHPSTGGFISHCGWNSVMESVDFGVPIIAMPIHLDQPMNARLIVELGVAVEIVRDDYGKIHREEIAEILKDVIAGKSGENLKAKMRDISKNLKSIRDEEMDTAAEELIQLCKNSPKLK |  | 

Further lines, the molecule ahead of its results:

Row | Molecule | Activity relative to the activity of SEQ ID NO:1, Glucose ([3]; 18 hrs) | Activity relative to the activity of SEQ ID NO:1, Glucose ([3]; 48 hrs) | Activity relative to the activity of SEQ ID NO:1, Glucose ([3]; 96 hrs) | Activity relative to the activity of SEQ ID NO:1, Xylose ([3]; 18 hrs) | Activity relative to the activity of SEQ ID NO:1, Xylose ([3]; 48 hrs) | Activity relative to the activity of SEQ ID NO:1, Xylose ([3]; 96 hrs) | overall activity relative to SEQ ID NO:1 ([3]; Table 8) | % SG bioconversion with UDP-xylose [1] [%] | % SG bioconversion with UDP-xylose [2] [%]
4 | C=C1C[C@@]23CC[C@H]4[C@@](C)(CCC[C@@]4(C)C(=O)O)[C@@H]2CC[C@]1(O[C@@H]1O[C@H](CO)[C@@H](O)[C@H](O[C@@H]2O[C@H](CO)[C@@H](O)[C@H](O)[C@H]2O)[C@H]1O[C@@H]1O[C@H](CO)[C@@H](O)[C@H](O)[C@H]1O)C3 [Reb B] |  |  |  |  |  |  |  | 0 | 0
5 | C=C1C[C@@]23CC[C@H]4[C@@](C)(CCC[C@@]4(C)C(=O)O[C@@H]4O[C@H](CO)[C@@H](O)[C@H](O)[C@H]4O[C@@H]4O[C@H](CO)[C@@H](O)[C@H](O)[C@H]4O)[C@@H]2CC[C@]1(O[C@@H]1O[C@H](CO)[C@@H](O)[C@H](O[C@@H]2O[C@H](CO)[C@@H](O)[C@H](O)[C@H]2O)[C@H]1O[C@@H]1O[C@H](CO)[C@@H](O)[C@H](O)[C@H]1O)C3 [Reb D, Rebaudioside D] |  |  |  |  |  |  |  | ~10 | 0
6 | SEQ ID1: uridine 5′-diphospho (UDP) glycosyl transferase of 462 amino acids from Oryza sativa Japonica Group (protein, listed as Oryza sativa) MDSGYSSSYAAAAGMHVVICPWLAFGHLLPCLDLAQRLASRGHRVSFVSTPRNISRLPPVRPALAPLVAFVALPLPRVEGLPDGAESTNDVPHDRPDMVELHRRAFDGLAAPFSEFLGTACADWVIVDVFHHWAAAAALEHKVPCAMMLLGSAHMIASIADRRLERAETESPAAAGQGRPAAAPTFEVARMKLIRTKGSSGMSLAERFSLTLSRSSLVVGRSCVEFEPETVPLLSTLRGKPITFLGLMPPLHEGRREDGEDATVRWLDAQPAKSVVYVALGSEVPLGVEKVHELALGLELAGTRFLWALRKPTGVSDADLLPAGFEERTRGRGVVATRWVPQMSILAHAAVGAFLTHCGWNSTIEGLMFGHPLIMLPIFGDQGPNARLIEAKNAGLQVARNDGDGSFDREGVAAAIRAVAVEEESSKVFQAKAKKLQEIVADMACHERYIDGFIQQLRSYKD | 100% | 100% | 100% | 100% | 100% | 100% |  |  | 
